We go through eleven molecules from US20070036799A1 (MacroGenics, published 2007).

Test [1] concerns the target T1, FcγRIIB-Fc fusion protein (soluble dimeric FcγRIIB) (human, UniProt P31994 43-217).
T1 construct: extracellular domain; the suffix agl in 2bfcagl is not explained; also called FcRIIB-Fc; FcγRIIB-G2; not shown: hinge-CH2-CH3 domain of human IgG2
T1 sequence (looked up): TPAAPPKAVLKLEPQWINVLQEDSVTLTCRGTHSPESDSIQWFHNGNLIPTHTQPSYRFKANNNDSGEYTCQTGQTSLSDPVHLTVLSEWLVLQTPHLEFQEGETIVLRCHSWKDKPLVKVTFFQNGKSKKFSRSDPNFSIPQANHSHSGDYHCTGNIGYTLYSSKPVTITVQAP
As to the kind of experiment: ELISA. For orientation: An ELISA detects its analyte on a solid surface through an enzyme-linked reagent.

For test [2], the target named is T1, FcγRIIB-Fc fusion protein (soluble …). As to the kind of experiment: ELISA. The source holds these as a separate data set.
The target of test [3] is T2, soluble monomeric FcγRIIIA-linker-AVITAG (158V), biotinylated (human, UniProt P08637 17-203, biotin on the AVITAG lysine (BirA)).
T2 construct: range 1-203; used as monomer in ELISA and BIAcore; also called FcR3A; FcRIIIa; not shown: linker-AVITAG (15 aa AVITAG) at the C-terminus; only the coding oligonucleotide is given
As to the kind of experiment: ELISA.

Test [4] concerns the target T2, soluble monomeric …. Kind of test: ELISA. The source holds these as a separate data set.
Test [5] has as its target T1, FcγRIIB-Fc fusion protein (soluble …). Kind of test: SPR. In general terms: In SPR one partner is held on a chip, and binding of the other changes the refractive index at the surface.
The target of test [6] is T2, soluble monomeric …. Kind of test: SPR.
Test [7] concerns the target T2, soluble monomeric …. Kind of test: SPR. The source holds these as a separate data set.
Test [8] deals with T1, FcγRIIB-Fc fusion protein (soluble …). Kind of test: ELISA. This is another data set of the same source.
Test [9] addresses T2, soluble monomeric …. As to the kind of experiment: ELISA. The source holds these as a separate data set.
Test [10] deals with T1, FcγRIIB-Fc fusion protein (soluble …). Kind of test: SPR. The source holds these as a separate data set.

Read-outs that look alike come from different tables or passages of the source.

T2 sequence (P08637 17-203 F176V limits assumed, form in doubt): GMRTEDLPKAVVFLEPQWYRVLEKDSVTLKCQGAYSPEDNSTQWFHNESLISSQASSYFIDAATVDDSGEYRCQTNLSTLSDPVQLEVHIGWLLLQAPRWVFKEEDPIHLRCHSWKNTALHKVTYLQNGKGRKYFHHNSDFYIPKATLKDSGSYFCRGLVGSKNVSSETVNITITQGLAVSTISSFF

B1: ch4-4-20 K317N, F423-deleted (antibody)
chain: EPKSCDKTHTCPPCPAPELLGGPSVFLFPPKPKDTLMISRTPEVTCVVVDVSHEDPEVKFNWYVDGVEVHNAKTKPREEQYNSTYRVVSVLTVLHQDWLNGNEYKCKVSNKALPAPIEKTISKAKGQPREPQVYTLPPSREEMTKNQVSLTCLVKGFYPSDIAVEWESNGQPENNYKTTPPVLDSDGSFFLYSKLTVDKSRWQQGNVSCSVMHEALHNHYTQKSLSLSPGK
Consider B1, for which, in [1], the fold vs wt was determined as 7 x increase.

B2: ch4-4-20 G316D, A378V, D399E (antibody)
chain: ASTKGPSVFPLAPSSKSTSGGTAALGCLVKDYFPEPVTVSWNSGALTSGVHTFPAVLQSSGLYSLSSVVTVPSSSLGTQTYICNVNHKPSNTKVDKKVEPKSCDKTHTCPPCPAPELLGGPSVFLFPPKPKDTLMISRTPEVTCVVVDVSHEDPEVKFNWYVDGVEVHNAKTKPREEQYNSTYRVVSVLTVLHQDWLNDKEYKCKVSNKALPAPIEKTISKAKGQPREPQVYTLPPSRDELTKNQVSLTCLVKGFYPSDIVVEWESNGQPENNYKTTPPVLESDGSFFLYSKLTVDKSRWQQGNVFSCSVMHEALHNHYTQKSLSLSPGK
For orientation: Kd means a measure of binding affinity in units of concentration. Lower therefore signals tighter binding. The koff is the rate constant with which the complex falls apart. Read a low koff as a long-lived complex. Regarding B2, the fold vs wt came out at 14 X in test [2], 1.5 X in test [3], 14 x increase in [1] and 1.5 x increase in test [4]. In addition, the Kd in test [5] came to 46 nM; in test [6], 72 nM. The koff in [5] was found to be 0.06 s⁻¹; in test [6] it was 0.117 s⁻¹.

B3: ch4D5 MGFc0088A (F243L, R292P, Y300L, P396L) (antibody)
chain: ASTKGPSVFPLAPSSKSTSGGTAALGCLVKDYFPEPVTVSWNSGALTSGVHTFPAVLQSSGLYSLSSVVTVPSSSLGTQTYICNVNHKPSNTKVDKKVEPKSCDKTHTCPPCPAPELLGGPSVFLLPPKPKDTLMISRTPEVTCVVVDVSHEDPEVKFNWYVDGVEVHNAKTKPPEEQYNSTLRVVSVLTVLHQDWLNGKEYKCKVSNKALPAPIEKTISKAKGQPREPQVYTLPPSRDELTKNQVSLTCLVKGFYPSDIAVEWESNGQPENNYKTTPLVLDSDGSFFLYSKLTVDKSRWQQGNVFSCSVMHEALHNHYTQKSLSLSPGK
For B3, the “Koff WT/Koff MUT” value in [7] turned out to be 10.1 ratio.

B4: ch4-4-20 K334E, T359N, T366S (antibody)
chain: ASTKGPSVFPLAPSSKSTSGGTAALGCLVKDYFPEPVTVSWNSGALTSGVHTFPAVLQSSGLYSLSSVVTVPSSSLGTQTYICNVNHKPSNTKVDKKVEPKSCDKTHTCPPCPAPELLGGPSVFLFPPKPKDTLMISRTPEVTCVVVDVSHEDPEVKFNWYVDGVEVHNAKTKPREEQYNSTYRVVSVLTVLHQDWLNGKEYKCKVSNKALPAPIEETISKAKGQPREPQVYTLPPSRDELNKNQVSLSCLVKGFYPSDIAVEWESNGQPENNYKTTPPVLDSDGSFFLYSKLTVDKSRWQQGNVFSCSVMHEALHNHYTQKSLSLSPGK
Turning to B4, the fold vs wt in test [3] was 1.5 X; in [4], 1.5 x increase. Also, the results for the Kd in test [5] and in [6] were 72 nM and 55.2 nM, respectively. Also, the koff in test [5] stood at 0.11 s⁻¹; in test [6], 0.128 s⁻¹.

B5: ch4-4-20 V348M, K334N, F275I, Y202M, K147T (antibody)
chain: ASTKGPSVFPLAPSSKSTSGGTAALGCLVTDYFPEPVTVSWNSGALTSGVHTFPAVLQSSGLYSLSSVVTVPSSSLGTQTYICNMNHKPSNTKVDKKVEPKSCDKTHTCPPCPAPELLGGPSVFLFPPKPKDTLMISRTPEVTCVVVDVSHEDPEVKINWYVDGVEVHNAKTKPREEQYNSTYRVVSVLTVLHQDWLNGKEYKCKVSNKALPAPIENTISKAKGQPREPQMYTLPPSRDELTKNQVSLTCLVKGFYPSDIAVEWESNGQPENNYKTTPPVLDSDGSFFLYSKLTVDKSRWQQGNVFSCSVMHEALHNHYTQKSLSLSPGK
Take B5: the fold vs wt in test [4] is 0.5 x increase.

B6: ch4D5 MGFc0074 (F243L, R292P, V305I) (antibody)
chain: ASTKGPSVFPLAPSSKSTSGGTAALGCLVKDYFPEPVTVSWNSGALTSGVHTFPAVLQSSGLYSLSSVVTVPSSSLGTQTYICNVNHKPSNTKVDKKVEPKSCDKTHTCPPCPAPELLGGPSVFLLPPKPKDTLMISRTPEVTCVVVDVSHEDPEVKFNWYVDGVEVHNAKTKPPEEQYNSTYRVVSILTVLHQDWLNGKEYKCKVSNKALPAPIEKTISKAKGQPREPQVYTLPPSRDELTKNQVSLTCLVKGFYPSDIAVEWESNGQPENNYKTTPPVLDSDGSFFLYSKLTVDKSRWQQGNVFSCSVMHEALHNHYTQKSLSLSPGK
On to B6, for which the “Koff WT/Koff MUT” value in test [7] worked out at 2.56 ratio.

B7: ch4-4-20 F243I, V379L, G420V (antibody)
chain: ASTKGPSVFPLAPSSKSTSGGTAALGCLVKDYFPEPVTVSWNSGALTSGVHTFPAVLQSSGLYSLSSVVTVPSSSLGTQTYICNVNHKPSNTKVDKKVEPKSCDKTHTCPPCPAPELLGGPSVFLIPPKPKDTLMISRTPEVTCVVVDVSHEDPEVKFNWYVDGVEVHNAKTKPREEQYNSTYRVVSVLTVLHQDWLNGKEYKCKVSNKALPAPIEKTISKAKGQPREPQVYTLPPSRDELTKNQVSLTCLVKGFYPSDIALEWESNGQPENNYKTTPPVLDSDGSFFLYSKLTVDKSRWQQVNVFSCSVMHEALHNHYTQKSLSLSPGK
In [5], B7 showed a Kd of 93.4 nM and a koff of 0.101 s⁻¹.

B8: ch4-4-20 T215P, K274N, A287G, K334N, L365V, P396L (antibody)
chain: PEPKSCDKTHTCPPCPAPELLGGPSVFLFPPKPKDTLMISRTPEVTCVVVDVSHEDPEVNFNWYVDGVEVHNGKTKPREEQYNSTYRVVSVLTVLHQDWLNGKEYKCKVSNKALPAPIENTISKAKGQPREPQVYTLPPSRDELTKNQVSVTCLVKGFYPSDIAVEWESNGQPENNYKTTPLVLDSDGSFFLYSKLTVDKSRWQQGNVFSCSVMHEALHNHYTQKSLSLSPGK
On to B8, for which, in test [1], the fold vs wt was 4 x increase.

B9: ch4-4-20 K288N, A330S, P396L (antibody)
chain: EPKSCDKTHTCPPCPAPELLGGPSVFLFPPKPKDTLMISRTPEVTCVVVDVSHEDPEVKFNWYVDGVEVHNANTKPREEQYNSTYRVVSVLTVLHQDWLNGKEYKCKVSNKALPSPIEKTISKAKGQPREPQVYTLPPSREEMTKNQVSLTCLVKGFYPSDIAVEWESNGQPENNYKTTPLVLDSDGSFFLYSKLTVDKSRWQQGNVFSCSVMHEALHNHYTQKSLSLSPGK
As to B9, the “ELISA, OD” value in test [8] is 1.2 OD; in test [9], 1 OD. Further, the Kd in [5] came to 33.4 nM; in [10], 41.3 nM.

B10: ch4-4-20 E293V, Q295E, A327T (antibody)
chain: EPKSCDKTHTCPPCPAPELLGGPSVFLFPPKPKDTLMISRTPEVTCVVVDVSHEDPEVKFNWYVDGVEVHNAKTKPRVEEYNSTYRVVSVLTVLHQDWLNGKEYKCKVSNKTLPAPIEKTISKAKGQPREPQVYTLPPSREEMTKNQVSLTCLVKGFYPSDIAVEWESNGQPENNYKTTPPVLDSDGSFFLYSKLTVDKSRWQQGNVFSCSVMHEALHNHYTQKSLSLSPGK
B10 displayed a Kd in test [5] of 86 nM. That is a double-digit nanomolar value.

B11: ch4-4-20 Y319F, P352L, P396L (antibody)
chain: EPKSCDKTHTCPPCPAPELLGGPSVFLFPPKPKDTLMISRTPEVTCVVVDVSHEDPEVKFNWYVDGVEVHNAKTKPREEQYNSTYRVVSVLTVLHQDWLNGKEFKCKVSNKALPAPIEKTISKAKGQPREPQVYTLLPSREEMTKNQVSLTCLVKGFYPSDIAVEWESNGQPENNYKTTPLVLDSDGSFFLYSKLTVDKSRWQQGNVFSCSVMHEALHNHYTQKSLSLSPGK
As to B11, the fold vs wt in test [3] was determined as 3.5 X. Also, the Kd in test [5] amounted to 55.7 nM; in test [6] it was 125 nM.
